One experiment concerns HIV. Particulars: greater activity; cited from earlier work.
Experiment [1] deals with mouse B Lymphocyte Stimulator (Mus musculus, UniProt Q9WU72). Description: Phage ELISA on immobilized mouse B Lymphocyte Stimulator. Type of experiment: binding. The note with it: phage scFv; antigen coated at 1 μg/ml. The protocol:
To determine the specificity of the 48 scFvs, a phage ELISA was performed against human and mouse B Lymphocyte Stimulator, and a panel of related and unrelated human antigens: Fas ligand, TRAIL, TNFα, TNFβ, and PBS, The: Fas ligand, TRAIL, TNFα, and TNFβ antigens were obtained from R&D Systems, Minneapolis, Minn., Individual E. coli colonies containing phagemid were inoculated into 5 ml 2YTAG and incubated at 37° C. for 4 hours, shaking. M13KO7 helper phage (Pharmacia) was added to each tube to a MOI of 10 and incubated […] 1 hour, the first 30 minutes static and the final 30 minutes with gentle shaking. Cells were pelleted by centrifugation at 3,500 rpm for 10 minutes and the supernatant discarded. Cell pellets were resuspended in 5 ml 2TYAK and incubated at 30° C. overnight with shaking. The next day, the cells were pelleted by centrifugation at 3,500 rpm for 10 minutes. The phage-containing supernatant (5 ml) was carefully transferred to a fresh tube, 1 ml of 6MPBS was added, and the tube was incubated at room temperature for 1 hour to pre-block the phage prior to ELISA.
All antigens were coated at 1 μg/ml. ELISAs were performed essentially as described in Example 2. The only exception to this being the detection of phage antibody binding to mouse B Lymphocyte Stimulator where the step involving incubation with the HRP-labelled anti-mouse polymer was omitted. Binding to mouse B Lymphocyte Stimulator was detected with TMB as in Example 2.
To determine the specificity of the 33 scFvs, a phage ELISA was performed as described in Example 4 against human and mouse B Lymphocyte Stimulator, and a panel of related human antigens: TRAIL, LIGHT, TNFα, TNFβ, and an uncoated well (PBS only).
(In general: An ELISA detects its analyte on a solid surface through an enzyme-linked reagent.)

Experiment [2] concerns the target T1, murine membrane-bound B Lymphocyte Stimulator on P388 plasma membranes (Mus musculus, UniProt Q9WU72).
T1 construct: endogenous in cells; host or cells: P388.D1 cells, plasma membrane fraction coated on plates
The experiment is described as follows: Competition ELISA on P388 plasma membranes. Type of experiment: binding. Particulars: phage scFv; for competition of P388 plasma membrane binding by HIS-tagged B Lymphocyte Stimulator: human competitor; for recognition of P388 plasma membranes: membranes coated at 10 μg/ml. The protocol: The ability of the 5 scFvs listed in Table 8 to also recognize murine membrane-bound B Lymphocyte Stimulator was determined using a competition ELISA. This assay assesses the ability of test phage scFvs to bind to the membrane-bound form of B Lymphocyte Stimulator on the murine cell line, P388, plasma membranes in the presence of different forms of competing human B Lymphocyte Stimulator. Competing B Lymphocyte Stimulator was either presented as the His-tagged form of B Lymphocyte Stimulator, or soluble B Lymphocyte Stimulator. ScFvs that recognize mouse membrane-bound B Lymphocyte Stimulator would give an ELISA signal on the P388 plasma membranes that is competed out by pre-incubation with HIS-tagged B Lymphocyte Stimulator but not by pre-incubation with soluble B Lymphocyte Stimulator.
P388.D1 cells are a mouse monocyte-macrophage like cell line. They were cultured in L15 medium supplemented with 2 mM L-glutamine, 10% CS, 10U penicillin, 100 µg/ml streptomycin (all reagents from Sigma). Cells were split 1:4 every 3-4 days to maintain a cell density of 2−8×10^5 per ml. A fresh aliquot of cells was thawed from liquid nitrogen every 6 weeks. Plasma membrane fractions were prepared as described in Example 2.
P388 plasma membranes ([…] per well) were coated at 10 μg/ml in PBS onto Falcon 96-well plates overnight at 4° C. The method is otherwise essentially as described Example 16.

mouse B Lymphocyte Stimulator, sequence (Q9WU72 127-309 limits assumed): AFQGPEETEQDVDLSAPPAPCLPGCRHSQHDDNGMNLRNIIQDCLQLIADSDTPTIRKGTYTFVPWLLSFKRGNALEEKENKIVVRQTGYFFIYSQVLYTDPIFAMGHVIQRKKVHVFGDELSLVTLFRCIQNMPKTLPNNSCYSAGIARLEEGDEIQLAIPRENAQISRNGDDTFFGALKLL
T1 sequence (Q9WU72 whole entry): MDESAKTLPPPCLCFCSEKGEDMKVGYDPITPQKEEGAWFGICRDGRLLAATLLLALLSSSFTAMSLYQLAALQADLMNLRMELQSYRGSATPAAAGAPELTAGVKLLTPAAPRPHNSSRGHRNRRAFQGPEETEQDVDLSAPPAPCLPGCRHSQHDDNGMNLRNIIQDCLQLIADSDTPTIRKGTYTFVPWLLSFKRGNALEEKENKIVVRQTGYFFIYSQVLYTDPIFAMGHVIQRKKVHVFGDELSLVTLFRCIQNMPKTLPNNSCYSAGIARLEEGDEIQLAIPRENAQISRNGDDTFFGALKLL

For `CC[C@H]1C(=O)Nc2ccc(F)cc2N1C(=O)OC(C)C` [GW-420867X], the “activity relative to HBY097” value with HIV is reported as 25 fold.

B1: I037E07: scFv, panel 1, binds soluble and membrane-bound B Lymphocyte Stimulator (protein, listed as Homo sapiens)
scFv: QVQLVQSGAEVKKPGASVKVSCKASGYTFTNYGITWVRQAPGQGLEWMGWISAYNGNRNYAQKLQGRVTMTTDTSTSTAYMELRSLRSDDTAVYYCVRDGIDILLVPAALMDVWGRGTMVTVSSGGGGSGGGGSGGGGSQSVLTQPASVSGSPGQSITISCTGTSSDVGGYNYVSWYQQHPGKAPKLMIYEGSKRPSGVSNRFSGSKSGNTASLTISGLQAEDEADYYCSSYTTRSTRVFGGGTKLTVLG
For B1, the “binding to immobilized mouse B Lymphocyte Stimulator” value in experiment [1] is reported as “did not bind”.

B2: I037E12: scFv, panel 1, binds soluble and membrane-bound B Lymphocyte Stimulator (protein, listed as Homo sapiens)
scFv: EVQLVQSGAEVKKPGASVKVSCKASGYTFTNYGITWVRQAPGQGLEWMGWISAYNGNRNYAQKLQGRVTMTTDTSTSTAYMELRSLRSDDTAVYYCVRDGIDILLVPAALMDVWGKGTLVTVSSGGGGSGGGGSGGGGSQSVLTQPASVSGSPGQSITISCTGTSSDVGGYNYVSWYQQHPGKAPKLMIYEGNKRPSGVSNRFSGSKSGNTASLTISGLQAEDEADYYCSSYTTRSTRVFGGGTKLTVLG
Consider B2, for which the “binding to immobilized mouse B Lymphocyte Stimulator” value in experiment [1] is listed as “did not bind”.

B3: I008C03: scFv, panel 1, binds soluble and membrane-bound B Lymphocyte Stimulator (protein, listed as Homo sapiens)
scFv: QMQLVRSGGGVVQPGRSLRLSCAASGFTFSSYGMHWVRQAPGKGLEWVSVTYSGGNTNYADSVRGRFTISRDNSKNTLYLQMNSLRAEDTAVYYCAREGSYDILTGYYVGVGRMDVWGKGTLVTVSSGGGGSGGGGSGGGGSSELTQDPAVSVALGQTVRITCQGDSLRSYYTNWFQQKPGQAPLLVVYAKNKRPSGIPDRFSGSSSGNTASLTITGAQAEDEADYYCNSRDSSGNHVVFGGGTKLTVLG
B3: the “binding to immobilized mouse B Lymphocyte Stimulator” value in experiment [1] is listed as “did not bind”.

B4: I079E02: scFv, panel 3, binds membrane-bound B Lymphocyte Stimulator (protein, listed as Homo sapiens)
scFv: QVQLVQSGAEVKKPGSSVKVSCKASGGTFSSYAISWVRQAPGQGLEWMGGIIPIFGTANYAQKFQGRVTITADKSTSTAYMELSSLRSDDTAVYYCARDSGSYYYDAFDIWGKGTMVTVSSGGGGSGGGGSGGGGSDIVMTQSPSTLSASVGDRVTITCRASQGISSWLAWYQQKPGKAPKLLIYAASSLQSGVPSRFSGSGSGTDFTLTISSLQPEDFATYYCQQANSFPLTFGGGTKVEIKR
Consider B4, for which, in experiment [2], the “competition of P388 plasma membrane binding by HIS-tagged B Lymphocyte Stimulator” value (“competition” below) is on record as “competed out” and the “recognition of P388 plasma membranes” value is “recognize”.

B5: I082H08: scFv, panel 3, binds membrane-bound B Lymphocyte Stimulator (protein, listed as Homo sapiens)
scFv: EVQLVESGGGLVQPGGSLRLSCAASGFTFSDYGMHWVRQRPGKGLEWIAFIGSDGSNKYYGDTVKGRFTISRDNAKNSLYLQMNSLRAEGTAVYYCARDWDMDVWGQGTMVTVSSGGGGSGGGGSGGGGSSHVILTQPRSVSGSPGQSVTISCTGTSSDVGGYHYVSWYQQHPGKAPRLMIYEVTKRPSGVSNRFSGSKSGNTASLTISGVQAEDEADYYCSSYTSASTVIFGGGTKLTVLG
As for B5, in experiment [2], the “competition” value was “competed out” and the “recognition of P388 plasma membranes” value was “recognize”.

B6: I099D03: scFv, panel 3, binds membrane-bound B Lymphocyte Stimulator (protein, listed as Homo sapiens)
scFv: QVQLVQSGAEVKKPGASVRVSCKSSGYTFTNYGISWVRQAPGQGLEWMGWISNNNGKTYYAQKVQGRVTMTTDTSTSTDYMELRGLRSDDTAIYYCARDNGGGTIGFDYWGRGTLVTVSSGGGGSGGGGSGGGGSAQAVLTQPSSVSGAPGQRVTMSCTGSSSNIGAGYDVHWYQQLPGTAPKLLIYDNTNRPSGVPDRFSGSRSGTSASLAITGLQAEDEADYFCQSYDITLSAVFGTGTKVTVLG
For B6, in experiment [2], the “competition” value is given as “competed out” and the “recognition of P388 plasma membranes” value is “recognize”.

The values above are taken from patent publication US7879328B2 (Human Genome Sciences, Inc., priority 2000, dated 2011).
